Laboratory results taken from US20080132681A1.
Values joined by “and” are separate entries in the source; they are usually repeats but may differ in a detail not shown here. Equal entries are not always repeated.

Biological target: IFNα receptor 2 (IFNAR2) on THP-1 cells (human) (UniProt P48551)
Test: cell-based or functional assay

UniProt P48551, sequence (P48551 27-515): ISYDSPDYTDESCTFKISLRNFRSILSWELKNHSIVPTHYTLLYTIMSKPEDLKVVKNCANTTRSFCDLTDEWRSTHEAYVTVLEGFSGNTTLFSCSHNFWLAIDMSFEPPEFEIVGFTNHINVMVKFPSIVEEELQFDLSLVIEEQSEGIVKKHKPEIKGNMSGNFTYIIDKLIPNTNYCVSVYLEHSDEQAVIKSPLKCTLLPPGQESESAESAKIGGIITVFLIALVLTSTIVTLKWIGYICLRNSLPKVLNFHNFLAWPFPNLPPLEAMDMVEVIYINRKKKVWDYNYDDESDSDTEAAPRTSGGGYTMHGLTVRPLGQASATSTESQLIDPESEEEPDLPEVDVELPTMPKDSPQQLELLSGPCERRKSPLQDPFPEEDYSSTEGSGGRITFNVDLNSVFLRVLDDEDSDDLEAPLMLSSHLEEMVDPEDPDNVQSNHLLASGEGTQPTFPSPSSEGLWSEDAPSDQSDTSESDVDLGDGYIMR

In the case of “6HisC1G/C98 IFNα-2a + limitin loop (from UniProt P01563 25-188) (ligand)”, the pSTAT1 EC50 (THP-1 cells) is reported as 30 pM and 34.8 pM.
